According to the DeepSol protein solubility set:

Test: soluble on expression in E. coli; label from the status in PepcDB or PDB records

| Sequence | soluble on expression in E. coli |
| --- | --- |
| MSLSWLGNDDRRKKDPEVFQTVSDGLKKLYKTKLLPLEEYYRFHEFHSPALEDADFDNKPMVLLVGQYSTGKTTFIRYLLEQDFPGMRIGPEPTTDSFIAVMQGDVEGIIPGNALVVDPKKPFRKLNAFGNAFLNRFVCAQLPNAVLESISVIDTPGILSGEKQRISRGYDFAAVLEWFAERVDRIILLFDAHKLDISDEFSEVIKALKNHEDKMRVVLNKADQIETQQLMRVYGALMWSLGKIVNTPEVIRVYIGSFWSHPLLIPDNRKLFEAEEQDLFRDIQSLPRNAALRKLNDLIKRARLAKVHAYIISSLKKEMPSVFGKDTKKKELVNNLAEIYGRIEREHQISPGDFPNLKKMQDQLQAQDFSKFQPLKSKLLEVVDDMLAHDIAQLMVLVRQEETQRPVQMVKGGAFEGTLQGPFGHGYGEGAGEGIDDAEWVVARDKPMYDEIFYTLSPVDGKITGANAKKEMVRSKLPNSVLGKIWKLADIDKDGMLDDEEFALANHLIKVKLEGHELPSELPAHLLPPYKRKVSEGHHHHHH | soluble |
| MGSDKIHHHHHHMNIETLMIKNPPILSKEDRLGSAFKKINEGGIGRIIVANEKIEGLLTTRDLLSTVESYCKDSCSQGDLYHISTTPIIDYMTPNPVTVYNTSDEFTAINIMVTRNFGSLPVVDINDKPVGIVTEREFLLLYKDLDEIFPVKVFMSTKVQTIYKEVRLDQAVKLMLRRGFRRLPVIDDDNKVVGIVTVVNAIKQLAKAVDKLDPDYFYGKVVKDVMVTNLVTIDELASVNRAAAEMIVKRIGSLLILNKDNTIRGIITERDLLIALHHILVMEKFKEKL | not soluble |
| MSLTDNLQDLISTKLAAAIANPLFPAVDSQLRAGRHISLDQLDNHAFLMDFQGELDSFYRRYNVELIRAPEGFFYLRPKATTLIARSVLTELEMLVGKVLCYLYLSPERLAQQGIFSTQEVYDELLNLADENKLLKAVNQRSSGSDLDKQKLAEKVRAALNRLRRLGMIHGVGEQNSGKFTIAEAVFRFGAEVRAGDDPREAQLRPIRDGRPATPGFWAAGKTRSATGGEHRDEGGDEGGDEERAEGHHHHHH | soluble |
| MSLAEVGSKSVLFVCLGNICRSPIAEAVFRKLVTDEKVSDNWAIDSSAVSDWNVGRPPDPRAVSCLRNHGISTAHKARQITKEDFATFDYILCMDESNLRDLNRKSNQVKNCKAKIELLGSYDPQKQLIIEDPYYGNDSDFEVVYQQCLRCCKAFLEKTYEGHHHHHH | soluble |
| MSLKMEDIAISITGYSYSNIKETIPDGVDKEEIAAVYEEIIDEYLQKGIPREIPALINVSGVPGAGKSTFCKKLLAMPENSSAIYIGFDAIMENERLPYIREEVNHAEEAFKRWELSARIAGYELLKRAIENKYLIIFDHSSALSQHIDLFNLLLSEGYEVHFNFIFIPEEEARRRAKNRKRYIPPYYIEERSKTLQYLLPEYKRICTTFKQIEPMRTRLIIARHGNTFRPEETPTRVGAKTDLPLVEEFKGRSIGRYLKEHDMIPDVIYAAPLLRTMQTARLAVQTIGLDSDISPLNAFVEIDYGVDENKTEEEVRLRLGNGNIEKGKKIIEDWDKNAVVPDGWKVDPDQIIHTWLDFAEKTVIPHQTTLLVTSNGIIRFAPYLTGDFEKFAQEHKIKVAPGGLCIFDKNDGDSFWTCSAWNVKPYELYADSEGHHHHHH | soluble |
| MARLKTAQPNSSLRKIAVVVATAVSGMSVYAQAAVQPKEETITVTAAPAAQESAWGPAPTIAAKRSATTTKTDTPIEKTPQSVSVVTNEEMQMHQFQSVKEALGYTPGVTVSSRGASNTYDFVIIRGFSSVGLSQNNYLDGLKLQGNFYNDAVIDPYMLERVELMRGPTSVLYGKSNPGGIISMVSKRPTTEPLKEIQFKMGTDNLFQTGFDFSDSLDDNGEFSYRLTGLARSTNEQQKSSESQRYAIAPSFTWRPDEKTNFTFLSYFQNEPETGYYGWLPKEGTVEPLPNGKRLPTDFNEGASNNTYSRNEKMVGYSFEHGFNDTFTVRQNLRFVEMKTAQKSVYGTGIAADGHTLNRGTIVDNERLQNFSVDTQLESKFATGDIDHTLLTGVDFMRMRNDINATFGSAPSIDLYNNYHPEYFAFGGAEPYQMNESKQTGLYVQDQAEWNKWVFTLGGRYDWSKQATTVRQNSTTPTEGYIERNDHQFTWRGGVNYVFDNGISPYFSYSQSFEPSAFDLWSTPRVSYKPSKGEQYEAGVKYVPKDMPVVVTGAVYQLTKTNNLTADPTNPLAQVPAGEIRARGVELEAKAALTANINMTASYTYTDAEYTKDTNLKGNTPEQVPEHMASLWGDYTFNEGPLSGLTLGTGGRFIGSSYGDPANSFKVGSAAVMDAVVKYDLARFGMAGSSIAVNVNNLLDREYVASCFQTYGCFWGAERQVVATATFRF | not soluble |
| MGSDKIHHHHHHMDSELRKRFNPDGSLLRRQQLRMLELLEVIDVICRKHQIPYWLSSGTLIGAARHKGFIPWDDDLDIEMLRSDYLRLLKVLPQELPDNLALQTNETDPNYIFIYGKLRDKDSHLEETNSYDRIFHYTGIYIDIFPLEKIPYCLAWIGGHMQGQIYNQLNNKNIKESTLYKRIRRIYHFNTRIGFPILRFIAKLFPGKELRHSFGTAYFKPRYTDDIFPLTEMEFEGKMFPVPRQTDAVLRKIYGDYMQLPDLENIHPHYNKLEFYK | not soluble |
| GPGSMTNFSPAKCEMDALFLTSAGTDGHPLAQPFWSSSRSSLPTFDAHRRGTARGRLQNPALIDSIRRSEGSRVGQDTCRYMQAAAASSQKAVHQLLSRLQTYRSFKPFLSPPAPYRDNLFTDDRGFSNFHGPSYGRGSTATVSRDQLWQMVDGILDTSVAQLLQHNAEGHFIMTLQSTLGLEAPISTAKSGTVIESRKAATPAIKGGATELASEERTPAGGPRQPLPPALQKTAVMSSFAPASALADRWALDHPSATAAAIEEQHHAWAKFEQQRQRTSRCFYLQAMQEQLDVLQAEQARDAADTTHSPPSRGDRSHRYLVDMHSPSDSEDAVAKTEEERQQALWHTFHDGPVLGVGASESLHETALGVPGIVSAYLESTDLQDWLHCSWAHRTHRHESAALRIQCAYRVYRARCKVREMRYERRQAFLASLSAERKARQVWDLALQVQKDTTTTTSGTDSTLRALQFFINKVNAVVAKHRARKQYQQRQDAEICRYAATRIQAVYRGHRTRAFVTELRHPEIVALRKHLQQENCAKLIQTCWRRYTAQRQWWRARHAACVLQSMYRCYAARRMLAERRYQRSLEASAELTKFAVQRIERWYASFLAARNAIGRAHVAELLMLQRVCRGYQGRHGVQKERRLSRFRFAVRTIEQRRWRVMEVREAIERRAALSATNAAKRTASMRDDAAVTIQRAWRQRRVLHVC | soluble |
| GMDYNQTVLSHLQKFWKHHDIKGFTWTLGRIVEELPDFQVFQVIPNHEDEPWVYVSSGIGQFLGQEFFIISPFETPEHIETLAMLASASMHYPDQFQLGKTVNIGRPWVEQSSFRHFLISLPYPYGQELEYMDNVRFFWLLPITQTERLFLNTHSVEELETKFDEAGIDYLDINRASTVWQAG | soluble |
| MFQWLYDVLWLLAPIWIRRYLDKRSGSAPAYRAHRDERFGKPHPNPVTGAVWIHAVSVGETRAAQPLIRELRRRFPDAPLLMTQMTPTGRETAQVLFPDAQCRYLPYDKKTWVRQFLREHRPMFGILMETEIWPNLMKECRRAGVPLFLANARLSEKSLNGYLKVRRLIRPAAASLTGCLAQTEADAARLAKLGAASVQVCGNTKYDLMPSEDMKTLAGQFEKRIGGRPVAVCGSTRVYRGEDEAEKLLAAWQQYRGDALLAVVPRHPEHFQTTFETAKRFGFKVQRRSDGLPVEPDTQVWVGDSMGELYAYYLCADVAFVGGSLVGSGCQNIIEPLSCGVTTIFGFSTYNFSEACRHALASGAAVQVESADAWREAVEKTLSGEGGGMQMQARVDGFIAQHRGAGARIAEAVREAVCGHRGRLEHHHHHH | not soluble |
| MNVSFSTSSLSVSNSRTRLISFRETEHGDQKSSEEWKTSTKLEALGSMEGELAHLLSTCKPETLNHNKTELSGFRNLFARFLRAKPTVDWSKIEPLPEGAIRPYKSLGHVVDKELIASQLRKLVVVKLNGGLGTSMGCKGPKSVISVRNDLTFLDLTMQQIQTLNKTYGVDVPLVLMNSFNTNEDTQKVLKKYANVKVSVHTFSQSQYPRINRETLLPIVKSLEADDNECWYPPGHGNFYEAFHNSGLLDKFLADGKEYCFLSNIDNMGATVDLSILNFVLNPSPDQTAPEFLMEVTDKTRADVKGGTLIQYEGRLMLLEIAQVPKDYVDEFKSISKFRIFNTNNLWAKLDAMRKIVVENKLEMEVIVNPKHLDRGLDVIQLETAAGAAIKSFSGAVGVNVPRSRFLPVKKTSDLLLLMSNLYDIDNGSLTLSHQRSFPTTPLVKLGSSFDKVKDYLGRFNGIPDLLELDHLTVSGDVWFGKDVSLKGTVIIIANHGDRIDIPPGSILENKIVSGNLRILEH | not soluble |
